Results taken from paper PMC7048787, “MCL1 binding to the reverse BH3 motif of P18INK4C couples cell survival to cell proliferation” (Cell Death & Disease, 2020).
Like-named read-outs stand apart in the source and are kept apart here. Values belong to the molecule of their own block, whether it stands above or below them. No end group written: not given here.

Key:
[1] = target: T1, His6-MCL1 (human MCL1 residues 163-326) (human, UniProt Q07820 163-326); test: fluorescence polarisation; competition FPA: 100 nM His6-MCL1 with variable unlabeled P18 protein or peptides for 10 min at RT, then 10 nM FITC-AHX-BAK for 1 h; 1x PBS pH 7.4, 100 uL, 96-well plates
T1 construct: Named His6-MCL1 in the FPA; called rMCL1 in the pull-downs; also called His-MCL1; recombinant MCL1; source: E. coli BL21(DE3), purified (nickel column, gel filtration); not shown: His6, N-terminal, kept
Target sequence in this assay (Q07820 163-326): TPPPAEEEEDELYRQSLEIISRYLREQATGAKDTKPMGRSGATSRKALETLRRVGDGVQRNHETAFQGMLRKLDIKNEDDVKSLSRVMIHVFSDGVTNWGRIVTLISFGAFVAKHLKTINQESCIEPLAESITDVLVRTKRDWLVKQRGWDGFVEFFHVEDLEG

[2] = test system: recombinant MCL1 (rMCL1); test: In vitro pulldown of recombinant MCL1 by recombinant P18/P16 constructs; format: binding, human; conditions: for pull-down of recombinant MCL1: Western blot of in vitro pulldown, recombinant proteins (IP), rMCL1 (IB), Fig. 2b
Text: Human MCL1 [Uniprot: Q07820] (residues 163–326), human P18 [Uniprot: P42773] (residues 1–168), A1–4 (P18 residues 1–140), A4–5 (P18 residues 106–168), P16 [Uniprot: P42771] (residues 1–156), and AC (P16 residues 1–113 and P18 residues 106–168) were sequence-optimized for bacterial expression and cloned into the restriction sites of NdeI and HindIII in a pET28a vector (EMD Millipore) to incorporate a N-terminal hexa-histidine (His6) tag and transformed into BL21(DE3) E. Coli (New England Bio Labs). Cultures were grown under kanamycin selection in Luria broth to a 600 nm optical density of 0.6 and expression was induced by addition of 1 mM isopropyl β-D-1-thiogalactopyranoside (Thermo Fisher). Cultures were harvested 3–4 h after induction by centrifugation at 4700 × g. Resulting bacterial pellets were stored at −80 °C. His6-MCL1 bacterial pellets were re-suspended (10 mL/wet g of pellet) in Buffer A (1 × PBS, pH 6.8) with the addition of 1× lysozyme (0.25 mg/mL) (Thermo Fisher) and 1 protease inhibitor tablet (Pierce #88266), sonicated, and cleared at 14,000 × g. Resulting lysate was purified on NGC FPLC (Bio-Rad Laboratories) using a 1 mL HiTrap HP nickel column (GE Healthcare) equilibrated with Buffer A. Protein was eluted with a 2 mM–1000 mM imidazole gradient. His-MCL1 containing fractions, as identified by denaturing polyacrylamide gel electrophoresis, were further purified by gel filtration in Buffer B (1× PBS, pH 6.8) on a HiPrep 16/60 Sephacryl S-100 column (GE Healthcare). Resulting protein identity was confirmed by matrix-assisted laser desorption/ionization (MALDI) mass spectrometry.
Fig. 2 MCL1 binds specifically to P18 through C-terminal rBH3. a Western blot of endogenous coIP of MCL1 (IP) with P18 (IB), BAX (IB), and P18 (IB) in WAC2. b Western blot of in vitro pulldown of recombinant proteins (IP), ANK1–4, ANK4–5, P18, p16, and chimera, with recombinant MCL1 (rMCL1) (IB). Cartoon of the p16, P18, and chimera proteins are shown below the blot. rBH3-containing helix is highlighted in yellow (Residues: 150–161). c Western blot of in vitro pulldown of recombinant P18 (IP) with rMCL1 (IB) with and without MCL1 inhibitor S63845.
P18 is a member of the INK4 protein family [P16INK4A (P16, CDKN2A), P15INK4B (P15, CDKN2B), P18INK4C (P18, CDKN2C), and P19INK4D (P19, CDKN2D)] that regulate G1/S cell cycle progression with all INK4 proteins retaining homologous CDK4/6 inhibitory function. INK4 family proteins have homologous structures containing either four or five ankyrin (ANK) repeats, a helix-turn-helix structural unit known to mediate protein-protein interactions[15],[17]. […] The rBH3 in P18 resides in its fifth ankyrin repeat (residues 141–168). […] Based on prior stability studies of ankyrin repeats within INK4 family proteins[18],[19], we designed two truncations of P18 (Supplementary Table S1). The first, P18-ANK1–4 (ANK1–4), removes the rBH3-containing fifth ankyrin repeat. The second, P18-ANK4–5 (ANK4–5), retains the rBH3 domain as well as ankyrin repeat 4 to facilitate folding.

[3] = test system: WAC2 cells (MCL1 overexpressed); test: PI DNA content flow cytometry, cell cycle population of MCL1-overexpressing WAC2 cells treated with BH3 mimetics; format: cell-based, human; conditions: PI staining, N = 3, Fig. 6a; for effect on MCL1 overexpression induced decrease in G1 population: WAC2, MCL1 plasmid, then BH3 mimetic for 18 h, final DMSO 0.5%
[4] = target: T1, His6-MCL1 (human MCL1 residues 163-326); test: pull-down; in vitro pulldown of recombinant P18, P16, truncated and chimeric proteins (IP) with recombinant MCL1 (IB); conditions: both partners purified

Molecule: Cc1c(-c2c(-c3ccc(F)o3)sc3ncnc(O[C@H](Cc4ccccc4OCc4ccnn4CC(F)(F)F)C(=O)O)c23)ccc(OCCN2CCN(C)CC2)c1Cl [S63845]
disruption of P18 pulldown of MCL1 ([2]; recombinant P18 (IP) with rMCL1 (IB) with and without MCL1 inhibitor, Fig. 2c): suppressed the ability of P18 to pull-down MCL1
effect on MCL1 overexpression induced decrease in G1 population [3]: rescued the MCL1 overexpression induced decrease in G1 population back to control levels

Molecule: CC1(C)CCC(CN2CCN(c3ccc(C(=O)NS(=O)(=O)c4ccc(NCC5CCOCC5)c([N+](=O)[O-])c4)c(Oc4cnc5[nH]ccc5c4)c3)CC2)=C(c2ccc(Cl)cc2)C1 [ABT-199]
impact on sub-G1 cell population ([3]; WAC2, MCL1 overexpressed, BH3 mimetic 18 h): more significant impact on the sub-G1 cell population
effect on MCL1 overexpression induced decrease in G1 population [3]: no impact on the change in G1 population

B3: chimera: chimeric protein consisting of P16-ANK1–3 and P18-ANK4–5 (P16 residues 1–113 and P18 residues 106–168) (protein)
chain: MEPAAGSSMEPSADWLATAAARGRVEEVRALLEAGALPNAPNSYGRRPIQVMMMGSARVAELLLLHGAEPNCADPATLTRPVHDAAREGFLDTLVVLHRAGARLDVRDAWGRLPLHLAAKEGHLRVVEFLVKHTASNVGHRNHKGDTACDLARLYGRNEVVSLMQANGAGGATNLQ
modifications: left off: His6, N-terminal, state not stated
pull-down of recombinant MCL1 [2]: gained the ability to pulldown recombinant MCL1

B5: P18^INK4C: human P18 [Uniprot: P42773] (residues 1–168), His6-tagged recombinant protein (protein)
chain: MAEPWGNELASAAARGDLEQLTSLLQNNVNVNAQNGFGRTALQVMKLGNPEIARRLLLRGANPDLKDRTGFAVIHDAARAGFLDTLQTLLEFQADVNIEDNEGNLPLHLAAKEGHLRVVEFLVKHTASNVGHRNHKGDTACDLARLYGRNEVVSLMQANGAGGATNLQ
modifications: left off: His6, N-terminal, state not stated
notes: human P18 [Uniprot: P42773]; (residues 1–168), His6-tagged recombinant protein
pull-down of recombinant MCL1 [2]: successfully pulled down MCL1

B7: ANK4–5: P18 residues 106–168, retains the rBH3 domain and ankyrin repeat 4 (protein)
chain: PLHLAAKEGHLRVVEFLVKHTASNVGHRNHKGDTACDLARLYGRNEVVSLMQANGAGGATNLQ
modifications: left off: His6, N-terminal, state not stated
pull-down of recombinant MCL1 [2]: successfully pulled down MCL1

B8: ANK1–4: P18 residues 1–140, truncation that removes the rBH3-containing fifth ankyrin repeat (protein)
chain: MAEPWGNELASAAARGDLEQLTSLLQNNVNVNAQNGFGRTALQVMKLGNPEIARRLLLRGANPDLKDRTGFAVIHDAARAGFLDTLQTLLEFQADVNIEDNEGNLPLHLAAKEGHLRVVEFLVKHTASNVGHRNHKGDTA
modifications: left off: His6, N-terminal, state not stated
notes: P18 residues 1–140, truncation that removes the rBH3-containing fifth ankyrin repeat
pull-down of recombinant MCL1 [2]: showed no interaction

B9: P16: recombinant P16 [Uniprot: P42771] (residues 1–156), negative control (protein)
chain: MEPAAGSSMEPSADWLATAAARGRVEEVRALLEAGALPNAPNSYGRRPIQVMMMGSARVAELLLLHGAEPNCADPATLTRPVHDAAREGFLDTLVVLHRAGARLDVRDAWGRLPVDLAEELGHRDVARYLRAAAGGTRGSNHARIDAAEGPSDIPD
modifications: left off: His6, N-terminal, state not stated
notes: recombinant P16 [Uniprot: P42771]; (residues 1–156), negative control
pull-down of recombinant MCL1 [2]: showed no interaction

More lines, now with the values ahead:

IC50 [1]: 2500 nM
Molecule: P18 12-mer peptide (P18 rBH3) (from UniProt P42773 150-161)

IC50 ([1]; both partners purified): 778 nM
B1: P18 21-mer peptide (P18 residues 141-161) (peptide, UniProt P42773 141-161, looked up)
peptide: CDLARLYGRNEVVSLMQANGA
notes: Human P18 (P18INK4C), residues 141-161, holding the rBH3 motif (150-161); Made on rink amide MBHA resin, so the C-terminus is probably an amide (surmised); also called P18x peptides; source: synthetic peptide

binding result [4]: binds
B2: Chimeric protein of P16-ANK1-3 and P18-ANK4-5 (P16 residues 1-113 and P18 residues 106-168) (other, human, UniProt P42771 1-113, looked up)
chain: B3 chain
notes: Human P18 (P18INK4C), residues 106-168 (ankyrin repeats 4-5 with the rBH3 motif); also called AC; chimera; source: E. coli BL21(DE3), recombinant

IC50 ([1]; both partners purified): 113 nM
B4: P18 protein (human P18INK4C residues 1-168), recombinant (natural protein, UniProt P42773 1-168, looked up)
chain: B5 chain
notes: Human P18 (P18INK4C, CDKN2C), residues 1-168, called full-length P18 protein in the results; The purification of this protein is not described; only that of His6-MCL1 is; also called CDKN2C; full-length P18 protein; source: E. coli BL21(DE3), recombinant

binding result [4]: binds
B6: P18-ANK4-5 (P18 residues 106-168) (domain or fragment, human, UniProt P42773 106-168, looked up)
chain: B7 chain
notes: Human P18 (P18INK4C), residues 106-168: ankyrin repeats 4 and 5, with the rBH3 motif; also called A4-5; source: E. coli BL21(DE3), recombinant

IC50 ([1]; both partners purified): > 30000 nM
Molecule: CDLARLYGRNAVVSLMQANGA (not fully specified (C-terminus)) [P18 rBH3 peptide with alanine substitution of E151]

IC50 ([1]; both partners purified): > 30000 nM
Molecule: CDLARLYGRNEVVSLAQANGA (not fully specified (C-terminus)) [P18 rBH3 peptide with alanine substitution of M156]
